Consider nine molecules from patent US20050282743A1, “Molecular interactions in cells” (Arbor Vita Corporation, priority 2001, published 2005).

What all share (experiment): G' assay
Assay [1] concerns the target GST-PAR3 PDZ domain 3 (Homo sapiens (Human)), Q8TEW0.
Assay [2] deals with T1, GST-FLJ 10324 PDZ domain 1 [GST: P08515].
T1 chain: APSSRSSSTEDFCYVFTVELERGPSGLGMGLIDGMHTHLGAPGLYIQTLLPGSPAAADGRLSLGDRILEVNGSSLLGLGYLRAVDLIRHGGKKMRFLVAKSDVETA

Assay [3] deals with GST-Atrophin-1 Interacting Protein PDZ domain 5 (Rattus norvegicus (Rat)), O88382.
GST-Atrophin-1 Interacting Protein PDZ domain 5 (Rattus norvegicus (Rat)), O88382, sequence (O88382 1128-1225): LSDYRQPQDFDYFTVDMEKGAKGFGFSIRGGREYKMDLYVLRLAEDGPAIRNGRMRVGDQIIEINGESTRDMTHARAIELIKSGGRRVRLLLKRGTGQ
For assay [4], the target named is T2, GST-AIPC PDZ domain 1 (Homo sapiens (Human)), O15018.
T2 chain: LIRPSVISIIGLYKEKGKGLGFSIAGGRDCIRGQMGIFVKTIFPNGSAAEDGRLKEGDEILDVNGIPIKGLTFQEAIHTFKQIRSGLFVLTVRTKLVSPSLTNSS

Assay [5] addresses T3, GST-HEMBA 1003117 PDZ domain 1 (Homo sapiens (Human)), Q96JH8.
T3 chain: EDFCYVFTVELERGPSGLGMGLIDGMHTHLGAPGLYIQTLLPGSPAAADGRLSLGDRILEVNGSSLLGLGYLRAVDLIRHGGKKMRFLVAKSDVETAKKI

The target in assay [6] is T4, GST-INADL PDZ domain 3 (Homo sapiens (Human)), Q8NI35.
T4 chain: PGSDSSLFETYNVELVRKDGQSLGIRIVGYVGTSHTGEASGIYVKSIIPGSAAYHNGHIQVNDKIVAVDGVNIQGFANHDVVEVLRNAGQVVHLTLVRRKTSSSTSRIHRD

Assay [7] addresses T5, GST-LIM Mystique PDZ domain 1 (Homo sapiens (Human)), Q96JY6.
T5 chain: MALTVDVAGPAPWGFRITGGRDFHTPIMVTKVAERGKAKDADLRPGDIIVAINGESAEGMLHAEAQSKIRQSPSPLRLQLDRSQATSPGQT

The target in assay [8] is T6, GST-APXL-1 PDZ domain 1 (Homo sapiens (Human)), Q13796.
T6 chain: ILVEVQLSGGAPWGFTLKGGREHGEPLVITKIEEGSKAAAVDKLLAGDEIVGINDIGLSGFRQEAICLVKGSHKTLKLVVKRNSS

In assay [9] the target is T7, GST-KIAA0807(S) PDZ domain 1 (Homo sapiens (Human)), Q6P0Q8.
T7 chain: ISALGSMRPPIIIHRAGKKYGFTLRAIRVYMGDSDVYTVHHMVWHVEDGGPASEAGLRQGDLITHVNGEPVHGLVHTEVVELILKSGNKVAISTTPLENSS

Assay [10] addresses T8, GST-KIAA1526 PDZ domain 1 (Homo sapiens (Human)), Q9P202.
T8 chain: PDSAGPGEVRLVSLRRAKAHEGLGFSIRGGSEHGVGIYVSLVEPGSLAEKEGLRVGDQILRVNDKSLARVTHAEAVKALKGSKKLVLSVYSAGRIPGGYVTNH

For assay [11], the target named is T9, GST-PTPL1 PDZ domain 2 (Homo sapiens (Human)), Q12923.
T9 chain: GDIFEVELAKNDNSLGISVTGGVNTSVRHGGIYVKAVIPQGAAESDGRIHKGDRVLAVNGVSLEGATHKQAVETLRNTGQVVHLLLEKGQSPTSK

For assay [12], the target named is T10, GST-Syntrophin gamma 1 PDZ domain 1 (Homo sapiens (Human)), Q9NSN8.
T10 chain: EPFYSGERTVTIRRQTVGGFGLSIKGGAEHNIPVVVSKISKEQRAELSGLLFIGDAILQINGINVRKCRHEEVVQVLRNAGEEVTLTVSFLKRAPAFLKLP

Assay [13] deals with T11, GST-KIAA0382 PDZ domain 1 (Canis lupus familiaris (Dog) (Canis familiaris)), A0A8I3.
T11 chain: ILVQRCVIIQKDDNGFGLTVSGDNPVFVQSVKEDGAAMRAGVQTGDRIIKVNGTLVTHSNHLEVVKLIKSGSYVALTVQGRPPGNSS

For assay [14], the target named is GST-KIAA807 [GST: P08515].
GST-KIAA807 [GST: P08515], sequence (P08515 whole entry, the tested form may be a part): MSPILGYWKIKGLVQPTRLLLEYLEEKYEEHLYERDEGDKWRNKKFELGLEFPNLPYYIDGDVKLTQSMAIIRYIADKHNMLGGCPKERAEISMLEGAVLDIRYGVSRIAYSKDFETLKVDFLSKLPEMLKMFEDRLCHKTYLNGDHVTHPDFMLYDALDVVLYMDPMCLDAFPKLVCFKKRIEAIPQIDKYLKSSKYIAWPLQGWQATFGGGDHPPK
The target of assay [15] is GST-KIAA1634 PDZ domain 5 (Homo sapiens (Human)), Q5TCQ9.
GST-KIAA1634 PDZ domain 5 (Homo sapiens (Human)), Q5TCQ9, sequence (Q5TCQ9 other isoform, or with tags, fused parts or gaps): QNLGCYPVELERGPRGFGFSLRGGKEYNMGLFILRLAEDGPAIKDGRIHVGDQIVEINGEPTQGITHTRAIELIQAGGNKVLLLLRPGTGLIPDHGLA
The target in assay [16] is T12, GST-FLJ00011 PDZ domain 1 (Homo sapiens (Human)), Q9H5P4.
T12 chain: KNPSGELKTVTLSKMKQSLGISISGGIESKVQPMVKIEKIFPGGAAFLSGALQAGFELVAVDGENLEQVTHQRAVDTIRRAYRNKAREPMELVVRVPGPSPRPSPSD

Assay [17] has as its target GST-BAI-1 Associated Protein PDZ domain 2 (Mus musculus (Mouse)), Q6RHR9.
Assay [18] concerns the target T13, GST-MINT1 PDZ domain 2 (Mus musculus (Mouse)), B2RUJ5.
T13 chain: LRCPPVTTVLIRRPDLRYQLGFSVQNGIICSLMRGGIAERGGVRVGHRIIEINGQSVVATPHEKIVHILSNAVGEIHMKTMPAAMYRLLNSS

Assay [19] has as its target T14, GST-LIM-RIL PDZ domain 1 (Homo sapiens (Human)), P50479.
T14 chain: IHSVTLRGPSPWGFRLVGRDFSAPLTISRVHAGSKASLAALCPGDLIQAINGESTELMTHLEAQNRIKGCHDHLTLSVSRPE

Assay [20] deals with GST-Atrophin-1 Interacting Protein PDZ domain 3 (Rattus norvegicus (Rat)), O88382.
GST-Atrophin-1 Interacting Protein PDZ domain 3 (Rattus norvegicus (Rat)), O88382, sequence (O88382 774-865, tags or fused parts left off): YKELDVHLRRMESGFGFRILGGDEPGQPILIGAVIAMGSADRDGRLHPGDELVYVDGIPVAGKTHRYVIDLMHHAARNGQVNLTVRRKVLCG
Assay [21] addresses T15, GST-Outer Membrane PDZ domain 1 (Homo sapiens (Human)), P57105.
T15 chain: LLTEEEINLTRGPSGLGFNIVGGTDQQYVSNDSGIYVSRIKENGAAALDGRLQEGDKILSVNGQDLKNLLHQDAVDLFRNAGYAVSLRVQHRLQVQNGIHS
Further: key of the grades not given here.

GST-PAR3 PDZ domain 3 (Homo sapiens (Human)), Q8TEW0, sequence (Q8TEW0 579-681): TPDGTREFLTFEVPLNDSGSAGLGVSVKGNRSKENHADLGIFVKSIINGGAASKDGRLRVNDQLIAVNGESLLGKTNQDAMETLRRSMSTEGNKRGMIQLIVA
GST-BAI-1 Associated Protein PDZ domain 2 (Mus musculus (Mouse)), Q6RHR9, sequence (Q6RHR9 455-558): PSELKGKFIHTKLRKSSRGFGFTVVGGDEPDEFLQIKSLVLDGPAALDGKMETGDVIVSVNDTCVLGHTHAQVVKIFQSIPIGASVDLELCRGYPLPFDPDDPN

For HDFRRAFKKILARGDRKRIV (modifications not checked) [alpha-2A Adrenergic receptor], the Classification in [1] came to 2 A450 class; in assay [2], 1 A450 class; in [3], 1 A450 class; in assay [4], 2 A450 class; in assay [5], 1 A450 class; in [6], 2 A450 class. In addition, the Classification in assay [7] came out at 1 A450 class; in assay [8] it was 1 A450 class; in [9], 1 A450 class; in assay [10], 4 A450 class; in [11], 2 A450 class; in [12], 2 A450 class.

Consider PIPAGGCTFSGIFPTLTSPL (modifications not checked) [KIA 1481], for which the Classification came out at 5 A450 class in assay [13]; 5 A450 class in [14]; 1 A450 class in assay [15]; 2 A450 class in [16]; 5 A450 class in [8]; 5 A450 class in assay [9]. Also, the Classification in assay [10] turned out to be 2 A450 class; in assay [17] it was 2 A450 class; in assay [18], 3 A450 class.

On to PYSELNYETSHYPASPDSWV (modifications not checked) [catenin - delta 2], for which the Classification in [1] is 1 A450 class; in [2] it was 3 A450 class; in assay [3] it was 5 A450 class; in [4], 2 A450 class; in [5], 1 A450 class; in assay [19] it was 2 A450 class. The Classification amounted to 1 A450 class in assay [20]; 4 A450 class in [14]; 3 A450 class in assay [15]; 5 A450 class in [21]; 5 A450 class in [7]; 3 A450 class in assay [9]. Also, the Classification in [10] is 2 A450 class; in [11], 5 A450 class; in assay [12], 1 A450 class; in assay [18] it was 3 A450 class.

For the molecule ELLQFCRTPNPALKNGQYWV (modifications not checked) [CSPG4 (chondroitin sulfae proteoglycan 4, melanoma-associated)], the Classification in assay [1] amounted to 3 A450 class; in assay [2], 5 A450 class; in [3], 2 A450 class; in [4], 5 A450 class; in [5] it was 5 A450 class; in assay [19] it was 2 A450 class. Besides, the Classification amounted to 2 A450 class in assay [20]; 1 A450 class in [14]; 3 A450 class in assay [6]; 2 A450 class in assay [15]; 1 A450 class in assay [21]; 2 A450 class in [7]. The Classification in assay [8] was determined as 3 A450 class; in assay [9] it was 1 A450 class; in [17] it was 2 A450 class; in assay [18] it was 5 A450 class.

Consider AWDDSARAAGGQGLHVTAL (modifications not checked) [LPAP], for which the Classification in [13] stood at 5 A450 class; in assay [2], 1 A450 class; in assay [3] it was 2 A450 class; in assay [5] it was 1 A450 class; in assay [14], 5 A450 class; in assay [16] it was 4 A450 class. The Classification in assay [8] came out at 1 A450 class; in assay [9] it was 5 A450 class; in assay [10], 1 A450 class; in assay [11] it was 1 A450 class; in assay [17], 2 A450 class; in [18] it was 1 A450 class.

Consider VPGALDYAAFSSALYGESDL (modifications not checked) [a-actinin 2], for which the Classification in [1] stood at 1 A450 class; in [3], 5 A450 class; in assay [4], 2 A450 class; in assay [19], 5 A450 class; in assay [14] it was 5 A450 class; in [6], 1 A450 class. The Classification in assay [15] was determined as 5 A450 class; in assay [21], 1 A450 class; in assay [7] it was 5 A450 class; in assay [8], 5 A450 class; in assay [9] it was 5 A450 class; in assay [10], 1 A450 class. The Classification in assay [11], in assay [17], in assay [12] and in assay [18] was 1 A450 class in each case.

In the case of KTMPAAMYRLLTAQEQPVYI (modifications not checked) [MINT-1], the Classification in assay [1] worked out at 5 A450 class; in assay [13] it was 1 A450 class; in [2], 5 A450 class; in assay [4] it was 1 A450 class; in assay [5], 3 A450 class; in [14], 4 A450 class. In [9], this molecule yielded a Classification of 5 A450 class.

For ILNSIQVMRAQMNQIQSVEV (modifications not checked) [ephrin B2], the Classification in [1], in assay [13], in assay [2], in [3], in assay [4] and in assay [5] was 2 A450 class each time. For the same molecule, the Classification is 2 A450 class in [19]; 1 A450 class in assay [20]; 2 A450 class in assay [14]; 2 A450 class in assay [6]; 2 A450 class in assay [16]; 1 A450 class in [7]. Moreover, the Classification in assay [8] stood at 1 A450 class; in [9], 2 A450 class; in [10] it was 3 A450 class; in assay [11], 2 A450 class; in assay [12] it was 2 A450 class; in assay [18] it was 3 A450 class.

VGTLLLERVIFPSVKIATLV (modifications not checked) [AdenoE4 typ9]: the Classification was found to be 1 A450 class in assay [13]; 3 A450 class in [2]; 3 A450 class in assay [5]; 4 A450 class in [20]; 4 A450 class in assay [14]; 5 A450 class in assay [21]. Further, the Classification in assay [16] was found to be 1 A450 class; in [9], 3 A450 class; in [11], 3 A450 class; in assay [17], 5 A450 class; in [18], 2 A450 class.
